Key:
[1] = target: T1, recombinant SARS-CoV-2 S1 (Examples 1 and 2) (SARS-CoV-2, UniProt P0DTC2 16-685); experiment: ELISA with sera of DMAb-treated mice
T1 construct: domain: Subunit 1 (S1); also called Subunit 1 (S1) domain; S1 domains

[2] = target: T2, recombinant SARS-CoV-2 receptor binding domain (RBD) (Examples 1 and 2) (SARS-CoV-2, UniProt P0DTC2 319-541); experiment: ELISA, axis RBD Binding (OD450), serial dilutions of in vitro expressed DMAb
T2 construct: also called SARS-CoV-2 RBD

[3] = target: recombinant SARS-CoV-2-RBD (Sino Biological) (SARS-CoV-2, UniProt P0DTC2 319-541)
[4] = target: SARS-CoV-2 Spike protein on pseudovirus (wild type) (SARS-CoV-2, UniProt P0DTC2 14-1273); experiment: cell-based or functional assay
[5] = target: T2, recombinant SARS-CoV-2 receptor binding …; experiment: ELISA, axis RBD Binding (OD450), D14 sera of mice given the S309 DMAb

B1: 2381 DMAb (antibody)
heavy: not shown
light: EVVLTQSPGTLSLSPGERATLSCRASQSVSSSYLAWYQQKPGQAPRLLIYGASSRATGIPDRFSGSGSGTDFTLTISRLEPEDFAVYHCQHFGSSSQWTFGQGTKVEIKRTVAAPSVFIFPPSDEQLKSGTASVVCLLNNFYPREAKVQWKVDNALQSGNSQESVTEQDSKDSTYSLSNTLTLSKADYEKHKVYACEVTHQGLSSPVTKSFNRGEC
binding result [1]: binds

B2: 2381 (G) (antibody)
heavy: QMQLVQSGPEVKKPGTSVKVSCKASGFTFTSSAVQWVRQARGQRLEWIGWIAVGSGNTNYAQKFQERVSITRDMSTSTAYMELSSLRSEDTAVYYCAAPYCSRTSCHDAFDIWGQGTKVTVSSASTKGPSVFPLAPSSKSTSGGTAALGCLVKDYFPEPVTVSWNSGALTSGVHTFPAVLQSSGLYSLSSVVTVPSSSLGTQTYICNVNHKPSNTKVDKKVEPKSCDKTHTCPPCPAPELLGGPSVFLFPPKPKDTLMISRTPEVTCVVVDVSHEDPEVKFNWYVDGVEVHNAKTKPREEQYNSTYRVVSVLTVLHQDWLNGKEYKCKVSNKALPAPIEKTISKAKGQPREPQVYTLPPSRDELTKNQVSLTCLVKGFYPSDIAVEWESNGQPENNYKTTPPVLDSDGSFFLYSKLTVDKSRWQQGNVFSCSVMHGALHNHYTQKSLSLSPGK
light: EVVLTQSPGTLSLSPGERATLSCRASQSVSSSYLAWYQQKPGQAPRLLIYGASSRATGIPDRFSGSGSGTDFTLTISRLEPEDFAVYHCQHFGSSSQWTFGQGTKVEIKRTVAAPSVFIFPPSDEQLKSGTASVVCLLNNFYPREAKVQWKVDNALQSGNSQESVTEQDSKDSTYSLSNTLTLSKADYEKHKVYACEVTHQGLSSPVTKSFNRGEC
binding result [2]: binds

B3: 2381 (GK) (antibody)
heavy: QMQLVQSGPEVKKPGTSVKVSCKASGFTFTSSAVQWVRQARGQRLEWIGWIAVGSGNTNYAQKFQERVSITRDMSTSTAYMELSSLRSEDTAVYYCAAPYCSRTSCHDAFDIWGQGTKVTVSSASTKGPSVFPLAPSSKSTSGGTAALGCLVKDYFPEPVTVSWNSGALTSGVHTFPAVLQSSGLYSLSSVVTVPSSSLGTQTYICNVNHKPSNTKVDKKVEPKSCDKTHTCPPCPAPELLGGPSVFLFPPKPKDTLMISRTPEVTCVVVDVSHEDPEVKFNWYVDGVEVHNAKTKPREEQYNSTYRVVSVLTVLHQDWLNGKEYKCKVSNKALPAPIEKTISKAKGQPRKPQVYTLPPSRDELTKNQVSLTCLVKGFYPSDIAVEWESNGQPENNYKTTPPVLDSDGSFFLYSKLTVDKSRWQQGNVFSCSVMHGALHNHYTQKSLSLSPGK
light: EVVLTQSPGTLSLSPGERATLSCRASQSVSSSYLAWYQQKPGQAPRLLIYGASSRATGIPDRFSGSGSGTDFTLTISRLEPEDFAVYHCQHFGSSSQWTFGQGTKVEIKRTVAAPSVFIFPPSDEQLKSGTASVVCLLNNFYPREAKVQWKVDNALQSGNSQESVTEQDSKDSTYSLSNTLTLSKADYEKHKVYACEVTHQGLSSPVTKSFNRGEC
binding result [2]: binds

B4: 2196 DMAb (antibody, V domains shown)
VH: QMQLVQSGPEVKKPGTSVKVSCKASGFTFTSSAVQWVRQARGQRLEWIGWIAVGSGNTNYAQKFQERVSITRDMSTSTAYMELSSLRSEDTAVYYCAAPYCSSISCNDGFDIWGQGTKVTVSS
VL: EVVLTQSPGTLSLSPGERATLSCRASQSVSSSYLAWYQQKPGQAPRLLIYGASSRATGIPDRFSGSGSGTDFTLTISRLEPEDFAVYHCQHYGSSSQWTFGQGTKVEIKR
notes: also called 2196 WT DMAb
binding result [1]: binds | binding result [2]: binds

B5: WCoVA9 (antibody, V domains shown)
VH: EVQLQQSGAELVKPGASVKLSCTASGFNIKDTYMHWVKQRPEQGLEWIGRIDPANGNTKYDPKFQAKATITANTSSNTAYLHLSSLTSEDTAVYYCAPYYDYVGAMDYWGQGTSVTVSS
VL: DIQMTQSPASQSASLGESVTITCLASQTIGTWLAWYQQKPGKSPQLLIYAATSLADGVPSRFSGSGSGTKFSFKISSLQAEDFVSYYCQQLYNTPLTFGGGTKLEIK
Kd [3]: 0.042 nM | koff [3]: 1.9e-05 s⁻¹ | kon [3]: 470000 M⁻¹ s⁻¹ | t1/2 [3]: 607 min | IC50, pseudovirus neutralization (wild type virus) [4]: 4.9 ng/mL

B6: WCoVA7 (antibody, V domains shown)
VH: EVKLLESGGGLVQPGGSLKLSCAASGFDFSRYWMSWVRQAPGKGLEWIGEINPDSSTINYTPSLKDKFIISRDNAKNTLYLQMSKVRSEDTALYYCARIYYGSPGAMDYWGQGTSVTVSS
VL: SIVMTQTPKFLLVSAGDRVTITCKASQSVSNDVAWYQQKPGQSPKLLIYYASNRYTGVPDRFTGSGYGTDFTFTISTVQAEDLAVYFCQQDYFSPYTFGGGTKLEIK
Kd [3]: 0.28 nM | koff [3]: 9.3e-05 s⁻¹ | kon [3]: 330000 M⁻¹ s⁻¹ | t1/2 [3]: 124 min | IC50, pseudovirus neutralization (wild type virus) [4]: 2.6 ng/mL

B7: S309 SARS-CoV-2 DMAb (antibody, V domains shown)
VH: QVQLVQSGAEVKKPGASVKVSCKASGYTFTSYGISWVRQAPGQGLEWMGWISAYNGNTNYAQKLQGRVTMTTDTSTSTAYMELRSLRSDDTAVYYCARDYTRGAWFGESLIGGFDNWGQGTLVTVSA
VL: EIVLTQSPGTLSLSPGERATLSCRASQSVSSSYLAWYQQKPGQAPRLLIYGASSRATGIPDRFSGSGSGTDFTLTISRLEPEDFAVYYCQQHDTSLTFGQGTKVEIKR
notes: also called S309 DMAb
binding result [5]: binds

Source: US20230212267A1 (WISTAR INSTITUTE OF ANATOMY AND BIOLOGY, published 2023)
